{"source": "paper PMC10105285", "about": "(Cell reports, 2023)", "binders": {"B1": {"name": "Der p 1 (Dermatophagoides pteronyssinus major mite allergen 1), biotinylated (natural protein, UniProt P08176 99-320, looked up)", "chain": "TNACSINGNAPAEIDLRQMRTVTPIRMQGGCGSCWAFSGVAATESAYLAYRNQSLDLAEQELVDCASQHGCHGDTIPRGIEYIQHNGVVQESYYRYVAREQSCRRPNAQRFGISNYCQIYPPNVNKIREALAQTHSAIAVIIGIKDLDAFRHYDGRTIIQRDNGYQPNYHAVNIVGYSNAQGVDYWIVRNSWDTNWGDNGYGYFAANIDLMMIEEYPYVVIL", "modifications": "biotinylated"}}, "biological_target": "T1, FLAG-tagged human LMAN1, wild type (pED-FLAG-LMAN1) (human, UniProt P49257 31-510)", "T1 sequence (looked up)": "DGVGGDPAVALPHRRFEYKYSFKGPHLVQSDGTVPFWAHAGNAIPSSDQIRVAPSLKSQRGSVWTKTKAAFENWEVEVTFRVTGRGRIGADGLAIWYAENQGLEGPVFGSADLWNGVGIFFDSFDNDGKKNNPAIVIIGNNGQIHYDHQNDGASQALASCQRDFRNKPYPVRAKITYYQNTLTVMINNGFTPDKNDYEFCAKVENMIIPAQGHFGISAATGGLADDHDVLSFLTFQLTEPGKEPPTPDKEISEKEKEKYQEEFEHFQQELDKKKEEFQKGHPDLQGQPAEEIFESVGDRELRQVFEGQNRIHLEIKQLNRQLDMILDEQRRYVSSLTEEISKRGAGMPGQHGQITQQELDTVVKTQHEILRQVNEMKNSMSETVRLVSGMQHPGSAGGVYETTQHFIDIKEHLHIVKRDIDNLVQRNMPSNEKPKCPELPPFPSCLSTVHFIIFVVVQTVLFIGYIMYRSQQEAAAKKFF", "assay": "flow cytometry on cells", "data": [{"binder": "B1", "values": [{"measurement": "binding result", "value": "binds"}]}]}
